Data reported in patent publication US20230015713A1.

Biological target: recombinant human FcγRIIa (131H)-glutathione-S-transferase (human) (UniProt P12318)
Assay: AlphaScreen competition: the antibody inhibits binding of FcγRIIa (131H)-GST to biotinylated human IgG1 (m6)

Substance	IC50 (read off the curve)
romosozumab PARG (SEQ ID NO: 8) C-terminal variant (antibody)	20 nM
wild-type romosozumab (antibody)	100 nM
